Measurements published in patent publication US20210246166A1 (Bayer, published 2021).
One block for each binder: values may come before it. Numbered stars: 1 amine (or outer) side, 2 acyl side, 3 side chain; on linkers, the order of the positions; unused ones are H or OH. Bridge positions count the residues as written; N and C are the ends. Square brackets hold non-standard residues; d marks the D form. Ends that are not written are not given here. NH(CH2CH2O)5CH2CO = O=C(COCCOCCOCCOCCOCCN[*:1])[*:2]; Oic = O=C(O)[C@@H]1C[C@@H]2CCCC[C@@H]2N1; βPro(3S) = O=C([C@H]1CCN([*:1])C1)[*:2]; tBuAla = CC(C)(C)C[C@H](N)C(=O)O; Cba = N[C@@H](CC1CCC1)C(=O)O; Pen = CC(C)(S)[C@H](N)C(=O)O; β3hP = O=C(O)C[C@@H]1CCCN1; NMeC = CN[C@@H](CS)C(=O)O; Sar = CNCC(=O)O

Tests used:
Experiment in all cases: cell-based or functional assay
[1] = biological target: recombinant human MASP2 active protease (amino acids 297-686, C-terminal His Tag) (human, UniProt O00187 297-686)
Target sequence in this assay (O00187 other isoform, or with tags, fused parts or gaps limits assumed): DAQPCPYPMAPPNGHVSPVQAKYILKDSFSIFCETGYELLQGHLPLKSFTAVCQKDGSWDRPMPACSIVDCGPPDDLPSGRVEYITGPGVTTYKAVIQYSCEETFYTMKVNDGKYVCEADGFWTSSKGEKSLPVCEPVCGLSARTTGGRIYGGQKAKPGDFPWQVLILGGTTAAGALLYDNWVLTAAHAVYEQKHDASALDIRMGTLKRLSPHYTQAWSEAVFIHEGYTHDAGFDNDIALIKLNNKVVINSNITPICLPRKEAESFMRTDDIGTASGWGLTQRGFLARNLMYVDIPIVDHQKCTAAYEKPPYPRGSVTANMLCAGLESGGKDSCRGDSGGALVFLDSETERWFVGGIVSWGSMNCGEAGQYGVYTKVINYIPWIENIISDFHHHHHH

[2] = biological target: T1, recombinant human MASP1 active protease (amino acids 297-699, C-terminal His Tag) (human, UniProt P48740 297-699)
T1 sequence: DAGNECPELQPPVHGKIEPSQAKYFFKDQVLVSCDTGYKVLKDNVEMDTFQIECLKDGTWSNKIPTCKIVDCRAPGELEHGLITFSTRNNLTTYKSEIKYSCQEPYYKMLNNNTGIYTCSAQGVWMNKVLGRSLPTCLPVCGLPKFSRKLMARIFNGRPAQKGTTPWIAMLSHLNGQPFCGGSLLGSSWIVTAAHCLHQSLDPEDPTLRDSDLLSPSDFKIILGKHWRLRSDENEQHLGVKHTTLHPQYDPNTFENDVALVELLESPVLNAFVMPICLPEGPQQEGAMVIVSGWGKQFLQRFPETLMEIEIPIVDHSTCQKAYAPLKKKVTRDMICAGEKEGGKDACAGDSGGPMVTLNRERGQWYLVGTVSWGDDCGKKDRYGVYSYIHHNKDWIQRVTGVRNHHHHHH

[3] = biological target: recombinant human MASP2 active protease (amino acids 297-686, C-terminal His Tag) (human, UniProt O00187 297-686); remark: listed apart in the source
Target sequence in this assay (O00187 other isoform, or with tags, fused parts or gaps limits assumed): as the sequence (O00187 other isoform, or with tags, fused parts or gaps limits assumed) above

[4] = biological target: T2, recombinant human MASP1 active protease (amino acids 297-699, C-terminal His Tag) (human, UniProt P48740 297-699); remark: listed apart in the source
T2 sequence: T1 sequence

human MASP2 IC50 [1]: 42 nM
human MASP1 IC50 [2]: 2 nM
B1: ((N-Me)G)-IC+SRS-((tBu)A)-PPI-(Pen)+IP-(PEG5-CH2CO2H (18 atoms))-NH2 (peptide)
peptide: [Sar]ICSRS[tBuAla]PPI[Pen]IP[NH(CH2CH2O)5CH2CO]-NH2
modifications: disulfide 3-11; N-terminus assumed
SMILES: CC[C@H](C)[C@H](NC(=O)CNC)C(=O)N[C@H]1CSSC(C)(C)[C@@H](C(=O)N[C@H](C(=O)N2CCC[C@H]2C(=O)NCCOCCOCCOCCOCCOCC(N)=O)[C@@H](C)CC)NC(=O)[C@H]([C@@H](C)CC)NC(=O)[C@@H]2CCCN2C(=O)[C@@H]2CCCN2C(=O)[C@H](CC(C)(C)C)NC(=O)[C@H](CO)NC(=O)[C@H](CCCNC(=N)N)NC(=O)[C@H](CO)NC1=O

human MASP2 IC50 [1]: 80 nM
human MASP1 IC50 [2]: 2 nM
B2: TIC+SRS-((tBu)A)-PPI-((N-Me)C)+I-NH2 (peptide)
peptide: TICSRS[tBuAla]PPI[NMeC]I-NH2
modifications: disulfide 3-11; N-terminus assumed
SMILES: CC[C@H](C)[C@H](NC(=O)[C@@H]1CSSC[C@H](NC(=O)[C@@H](NC(=O)[C@@H](N)[C@@H](C)O)[C@@H](C)CC)C(=O)N[C@@H](CO)C(=O)N[C@@H](CCCNC(=N)N)C(=O)N[C@@H](CO)C(=O)N[C@@H](CC(C)(C)C)C(=O)N2CCC[C@H]2C(=O)N2CCC[C@H]2C(=O)N[C@@H]([C@@H](C)CC)C(=O)N1C)C(N)=O

human MASP2 IC50 [3]: 85 nM
human MASP1 IC50 [4]: 2.9 nM
B3: Example 455: ((N-Me)G)-IC+SRSLP-(Oic)-I-(Pen)+IP-(beta-homo-P)-OH (peptide)
peptide: [Sar]ICSRSLP[Oic]I[Pen]IP[β3hP]-OH
modifications: disulfide 3-11; N-terminus assumed
SMILES: CC[C@H](C)[C@H](NC(=O)CNC)C(=O)N[C@H]1CSSC(C)(C)[C@@H](C(=O)N[C@H](C(=O)N2CCC[C@H]2C(=O)N2CCC[C@H]2CC(=O)O)[C@@H](C)CC)NC(=O)[C@H]([C@@H](C)CC)NC(=O)[C@@H]2C[C@@H]3CCCC[C@@H]3N2C(=O)[C@@H]2CCCN2C(=O)[C@H](CC(C)C)NC(=O)[C@H](CO)NC(=O)[C@H](CCCNC(=N)N)NC(=O)[C@H](CO)NC1=O

human MASP2 IC50 [3]: 110 nM
human MASP1 IC50 [4]: 1.9 nM
B4: Example 456: ((N-Me)G)-IC+SRSLP-(Oic)-I-(Pen)+IP-((S)-Pyrrolidine-3-carboxylic acid)-OH (peptide)
peptide: [Sar]ICSRSLP[Oic]I[Pen]IP[βPro(3S)]-OH
modifications: disulfide 3-11; N-terminus assumed
SMILES: CC[C@H](C)[C@H](NC(=O)CNC)C(=O)N[C@H]1CSSC(C)(C)[C@@H](C(=O)N[C@H](C(=O)N2CCC[C@H]2C(=O)N2CC[C@H](C(=O)O)C2)[C@@H](C)CC)NC(=O)[C@H]([C@@H](C)CC)NC(=O)[C@@H]2C[C@@H]3CCCC[C@@H]3N2C(=O)[C@@H]2CCCN2C(=O)[C@H](CC(C)C)NC(=O)[C@H](CO)NC(=O)[C@H](CCCNC(=N)N)NC(=O)[C@H](CO)NC1=O

human MASP2 IC50 [1]: 24 nM
human MASP1 IC50 [2]: 2 nM
B5: A-(Cba)-C+SRS-((tBu)A)-PPI-(Pen)+IPD-NH2 (peptide)
peptide: A[Cba]CSRS[tBuAla]PPI[Pen]IPD-NH2
modifications: disulfide 3-11; N-terminus assumed
SMILES: CC[C@H](C)[C@@H]1NC(=O)[C@@H]2CCCN2C(=O)[C@@H]2CCCN2C(=O)[C@H](CC(C)(C)C)NC(=O)[C@H](CO)NC(=O)[C@H](CCCNC(=N)N)NC(=O)[C@H](CO)NC(=O)[C@@H](NC(=O)[C@H](CC2CCC2)NC(=O)[C@H](C)N)CSSC(C)(C)[C@@H](C(=O)N[C@H](C(=O)N2CCC[C@H]2C(=O)N[C@@H](CC(=O)O)C(N)=O)[C@@H](C)CC)NC1=O

human MASP2 IC50 [1]: 72 nM
human MASP1 IC50 [2]: 2.1 nM
B6: IIC+SRS-((tBu)A)-PPI-(Pen)+IPD-NH2 (peptide)
peptide: IICSRS[tBuAla]PPI[Pen]IPD-NH2
modifications: disulfide 3-11; N-terminus assumed
SMILES: CC[C@H](C)[C@H](N)C(=O)N[C@H](C(=O)N[C@H]1CSSC(C)(C)[C@@H](C(=O)N[C@H](C(=O)N2CCC[C@H]2C(=O)N[C@@H](CC(=O)O)C(N)=O)[C@@H](C)CC)NC(=O)[C@H]([C@@H](C)CC)NC(=O)[C@@H]2CCCN2C(=O)[C@@H]2CCCN2C(=O)[C@H](CC(C)(C)C)NC(=O)[C@H](CO)NC(=O)[C@H](CCCNC(=N)N)NC(=O)[C@H](CO)NC1=O)[C@@H](C)CC

human MASP2 IC50 [1]: 47 nM
human MASP1 IC50 [2]: 2 nM
B7: ((N-Me)G)-IC+SRS-((tBu)A)-PPI-(Pen)+IP-((N-Me)G)-((N-Me)G)-((N-Me)G)-NH2 (peptide)
peptide: [Sar]ICSRS[tBuAla]PPI[Pen]IP[Sar][Sar][Sar]-NH2
modifications: disulfide 3-11; N-terminus assumed
SMILES: CC[C@H](C)[C@H](NC(=O)CNC)C(=O)N[C@H]1CSSC(C)(C)[C@@H](C(=O)N[C@H](C(=O)N2CCC[C@H]2C(=O)N(C)CC(=O)N(C)CC(=O)N(C)CC(N)=O)[C@@H](C)CC)NC(=O)[C@H]([C@@H](C)CC)NC(=O)[C@@H]2CCCN2C(=O)[C@@H]2CCCN2C(=O)[C@H](CC(C)(C)C)NC(=O)[C@H](CO)NC(=O)[C@H](CCCNC(=N)N)NC(=O)[C@H](CO)NC1=O
